The assay addresses FevR of F. holarctica LVS fused to the Zif protein (F. holarctica LVS). Briefly: two-hybrid.

Substance “MglA/SspA complex of the bridge two-hybrid system (MglA of F. tularensis SCHU S4 fused to ω, with Ss” displayed a β-galactosidase activity in strain AW23 after 300 min of 1070 AU and a β-galactosidase activity in strain AW24 after 300 min of 1300 AU.

The values above are taken from publication PMC3792966.
